Starred links: 1 amine or outer side, 2 acyl side, 3 side chain; linkers in the order of their positions; H or OH if unused. Non-standard residues stand in square brackets, D forms with d. Groups on a side chain read outwards from the residue. *: point of attachment. TTDS = 4-[3-[2-[2-(3-aminopropoxy)ethoxy]ethoxy]propylamino]-4-oxo-butanoyl; γGlu = O=C(O)[C@H](CCC(=O)[*:2])N[*:1]; Stearoyl = CCCCCCCCCCCCCCCCCC(=O)*; Palmitoyl = CCCCCCCCCCCCCCCC(=O)*; Cit = NC(=O)NCCC[C@H](N)C(=O)O; αMeK = C[C@](N)(CCCCN)C(=O)O; hLys = NCCCCC[C@H](N)C(=O)O; AEEA = NCCOCCOCC(=O)O; Aib = CC(C)(N)C(=O)O
B1: peptide of SEQ ID NO: 45 (peptide)
peptide: Ac-LEGREKVRAK(Ac)I[Aib][Aib]EGK([AEEA-AEEA-AEEA-AEEA-AEEA-γGlu-γGlu-γGlu-Palmitoyl])STFS[αMeK]RAK(Ac)-NH2
SMILES: CCCCCCCCCCCCCCCC(=O)N[C@@H](CCC(=O)N[C@@H](CCC(=O)N[C@@H](CCC(=O)NCCOCCOCC(=O)NCCOCCOCC(=O)NCCOCCOCC(=O)NCCOCCOCC(=O)NCCOCCOCC(=O)NCCCC[C@H](NC(=O)CNC(=O)[C@H](CCC(=O)O)NC(=O)C(C)(C)NC(=O)C(C)(C)NC(=O)[C@@H](NC(=O)[C@H](CCCCNC(C)=O)NC(=O)[C@H](C)NC(=O)[C@H](CCCNC(=N)N)NC(=O)[C@@H](NC(=O)[C@H](CCCCN)NC(=O)[C@H](CCC(=O)O)NC(=O)[C@H](CCCNC(=N)N)NC(=O)CNC(=O)[C@H](CCC(=O)O)NC(=O)[C@H](CC(C)C)NC(C)=O)C(C)C)[C@@H](C)CC)C(=O)N[C@@H](CO)C(=O)N[C@H](C(=O)N[C@@H](Cc1ccccc1)C(=O)N[C@@H](CO)C(=O)N[C@@](C)(CCCCN)C(=O)N[C@@H](CCCNC(=N)N)C(=O)N[C@@H](C)C(=O)N[C@@H](CCCCNC(C)=O)C(N)=O)[C@@H](C)O)C(=O)O)C(=O)O)C(=O)O

What follows are binders tested against T1, RXFP1 receptor (endogenous, on OVCAR5 cells) (UniProt Q9HBX9 1-757, limits assumed) (assay: cell-based or functional assay).
T1 sequence (looked up): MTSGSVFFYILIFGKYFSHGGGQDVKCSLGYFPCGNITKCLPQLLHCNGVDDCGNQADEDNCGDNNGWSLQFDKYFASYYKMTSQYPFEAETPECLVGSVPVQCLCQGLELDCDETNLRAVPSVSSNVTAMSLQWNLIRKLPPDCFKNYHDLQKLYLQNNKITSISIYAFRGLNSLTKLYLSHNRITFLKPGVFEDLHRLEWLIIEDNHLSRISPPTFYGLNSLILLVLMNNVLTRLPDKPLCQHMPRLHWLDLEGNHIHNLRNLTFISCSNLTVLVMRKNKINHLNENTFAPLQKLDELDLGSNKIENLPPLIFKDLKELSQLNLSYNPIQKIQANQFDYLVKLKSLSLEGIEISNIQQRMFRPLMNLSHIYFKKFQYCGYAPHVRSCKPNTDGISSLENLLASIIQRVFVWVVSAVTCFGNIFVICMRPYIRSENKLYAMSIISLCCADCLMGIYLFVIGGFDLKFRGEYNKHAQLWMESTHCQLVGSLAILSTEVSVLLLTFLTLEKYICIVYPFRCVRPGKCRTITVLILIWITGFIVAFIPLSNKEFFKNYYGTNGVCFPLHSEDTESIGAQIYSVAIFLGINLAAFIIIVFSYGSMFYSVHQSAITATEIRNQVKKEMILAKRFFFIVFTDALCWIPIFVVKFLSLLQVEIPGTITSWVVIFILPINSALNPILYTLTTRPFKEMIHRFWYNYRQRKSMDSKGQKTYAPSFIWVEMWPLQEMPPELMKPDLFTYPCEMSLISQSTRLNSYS

**Q.** With Ac-VIKLSGRELVRAQIAISGMSTWSKKKK-NH2 [KKKK(AcB7-29 C11.23S)] as the binder, how does the “EC50 (nM), cAMP assay in OVCAR 5 cells” value read?
**A.** 206 nM

**Q.** What about the “Emax, cAMP assay in OVCAR 5 cells” value of the same binder?
**A.** 84%

**Q.** What does the source list for Ac-VIKLSGRELVRAQIAISGMSTWSKRSL-NH2 [AcB7-33 C11.23S]?
**A.** EC50 (nM), cAMP assay in OVCAR 5 cells: 929 nM; Emax, cAMP assay in OVCAR 5 cells: 70%

**Q.** For H-VIKLSGRELVRAQIAISGMSTWSKRSL-NH2 [B7-33 C11.23S], which “EC50 (nM), cAMP assay in OVCAR 5 cells” value is on record?
**A.** 1640 nM

**Q.** What about the “Emax, cAMP assay in OVCAR 5 cells” value of the same binder?
**A.** 90%

Target: T1, RXFP1 receptor (endogenous, on OVCAR5 …)
Assay: cell-based or functional assay
Remark: another data set of the same source

**Q.** Ac-LEGREKVRA[Cit]I[Aib][Aib]EGK([TTDS-TTDS-TTDS-γGlu-γGlu-γGlu-Stearoyl])STFS[αMeK]RAK(Ac)-NH2 [peptide of SEQ ID NO: 56] was tested. Which “EC50 (nM), OVCAR 5 cells (cAMP)” value did it give?
**A.** 0.15 nM

**Q.** And the “EMax, OVCAR 5 cells (cAMP)” value?
**A.** 91%

**Q.** With Ac-LEGREKVRAQI[Aib][Aib]EGK([TTDS-TTDS-TTDS-γGlu-γGlu-γGlu-Palmitoyl])STFS[αMeK]RAK(Ac)-NH2 [peptide of SEQ ID NO: 48] as the binder, how does the “EC50 (nM), OVCAR 5 cells (cAMP)” value read?
**A.** 0.45 nM

**Q.** What about the “EMax, OVCAR 5 cells (cAMP)” value of the same binder?
**A.** 96%

**Q.** For Ac-LEGREKVRAK(Ac)I[Aib][Aib]EGK([TTDS-TTDS-TTDS-γGlu-γGlu-γGlu-Palmitoyl])STWS[hLys]RAK(Ac)-NH2 [peptide of SEQ ID NO: 57], which “EC50 (nM), OVCAR 5 cells (cAMP)” value is on record?
**A.** 0.44 nM

**Q.** And the “EMax, OVCAR 5 cells (cAMP)” value?
**A.** 98%

**Q.** Ac-LEGREKVRAKI[Aib][Aib]EGK([TTDS-TTDS-TTDS-γGlu-γGlu-γGlu-Palmitoyl])STFS[αMeK]RAK(Ac)-NH2 [peptide of SEQ ID NO: 47] was tested. Which “EC50 (nM), OVCAR 5 cells (cAMP)” value did it give?
**A.** 0.64 nM

**Q.** What about the “EMax, OVCAR 5 cells (cAMP)” value of the same binder?
**A.** 95%

**Q.** How did the “EC50 (nM), OVCAR 5 cells (cAMP)” value turn out when Ac-LEGREKVRAK(Ac)I[Aib][Aib]EGK([TTDS-TTDS-TTDS-γGlu-γGlu-γGlu-Palmitoyl])STFS[αMeK]RAK-NH2 [peptide of SEQ ID NO: 49] was run?
**A.** 0.19 nM

**Q.** And the “EMax, OVCAR 5 cells (cAMP)” value?
**A.** 97%

**Q.** With Ac-LEGREKVRAK(Ac)I[Aib][Aib]EGK([TTDS-TTDS-γGlu-γGlu-γGlu-γGlu-Stearoyl])STWS[Aib]RKK(Ac)-NH2 [peptide of SEQ ID NO: 54] as the binder, how does the “EC50 (nM), OVCAR 5 cells (cAMP)” value read?
**A.** 0.16 nM

**Q.** What about the “EMax, OVCAR 5 cells (cAMP)” value of the same binder?
**A.** 96%

**Q.** For Ac-LEGREKVRAK(Ac)I[Aib][Aib]EGK([TTDS-TTDS-TTDS-γGlu-γGlu-γGlu-Palmitoyl])STW[Dser]KRAK(Ac)-NH2 [peptide of SEQ ID NO: 44], which “EC50 (nM), OVCAR 5 cells (cAMP)” value is on record?
**A.** 2.2 nM

**Q.** What about the “EMax, OVCAR 5 cells (cAMP)” value of the same binder?
**A.** 97%

**Q.** Which results are given for Ac-LEGREKVRAK(Ac)I[Aib][Aib]EGK([TTDS-TTDS-TTDS-γGlu-γGlu-γGlu-γGlu-Stearoyl])STWS[Aib]RKK(Ac)-NH2 [peptide of SEQ ID NO: 51]?
**A.** EC50 (nM), OVCAR 5 cells (cAMP): 0.1 nM; EMax, OVCAR 5 cells (cAMP): 98%

**Q.** Ac-LEGRERVRAK(Ac)I[Aib][Aib]EGK([TTDS-TTDS-TTDS-γGlu-γGlu-γGlu-Palmitoyl])STWS[Aib]RRK(Ac)-NH2 [peptide of SEQ ID NO: 55] was tested. Which “EC50 (nM), OVCAR 5 cells (cAMP)” value did it give?
**A.** 0.18 nM

**Q.** B1 was tested. Which “EC50 (nM), OVCAR 5 cells (cAMP)” value did it give?
**A.** 0.45 nM

**Q.** And the “EMax, OVCAR 5 cells (cAMP)” value?
**A.** 96%
